Consider five molecules from US20210198360 (published 2021).

The target of assay [1] is human PD-L1-Fc (human). As to the kind of experiment: BLI, bivalent.
Assay [2] addresses T1, human PD-L2-Fc (human, UniProt Q9BQ51).
T1 chain: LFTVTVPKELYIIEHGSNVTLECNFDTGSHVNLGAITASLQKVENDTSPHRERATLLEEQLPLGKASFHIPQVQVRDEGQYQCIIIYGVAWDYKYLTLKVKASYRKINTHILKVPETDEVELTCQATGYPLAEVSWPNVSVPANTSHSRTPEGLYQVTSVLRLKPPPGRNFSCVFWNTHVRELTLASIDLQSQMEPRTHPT
As to the kind of experiment: BLI, bivalent. On the technique in general: Biolayer interferometry detects binding as a change in optical thickness at a sensor tip.

In the next assay the target is T2, human PD-L2-HIS (human, UniProt Q9BQ51).
T2 chain: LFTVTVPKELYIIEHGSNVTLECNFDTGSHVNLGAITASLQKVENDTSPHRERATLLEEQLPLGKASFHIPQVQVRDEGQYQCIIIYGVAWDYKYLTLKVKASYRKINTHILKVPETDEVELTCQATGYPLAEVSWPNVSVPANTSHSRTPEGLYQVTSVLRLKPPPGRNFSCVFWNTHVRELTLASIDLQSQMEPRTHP
As to the kind of experiment: BLI, monovalent.

The next assay addresses T3, mouse PD-L2-Fc (mouse, UniProt Q9WUL5).
T3 chain: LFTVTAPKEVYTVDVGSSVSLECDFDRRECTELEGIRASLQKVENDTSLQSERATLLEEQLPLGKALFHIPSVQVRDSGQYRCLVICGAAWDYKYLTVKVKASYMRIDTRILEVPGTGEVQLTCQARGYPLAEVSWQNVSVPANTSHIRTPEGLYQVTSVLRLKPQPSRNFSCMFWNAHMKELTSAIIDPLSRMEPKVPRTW
The assay is described as follows: BLI, bivalent.

The target of the next assay is human PD1-Fc (human, UniProt Q15116). The assay is described as follows: BLI, bivalent.
human PD1-Fc, sequence (Q15116 25-170): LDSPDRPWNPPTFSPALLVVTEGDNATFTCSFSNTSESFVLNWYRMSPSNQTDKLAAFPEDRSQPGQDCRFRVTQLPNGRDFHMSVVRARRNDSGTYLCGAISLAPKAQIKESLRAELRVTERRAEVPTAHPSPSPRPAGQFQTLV
Assay [3] addresses T1, human PD-L2-Fc. The assay is described as follows: BLI, monovalent.
Assay [4] concerns the target T4, mouse PD-L1-Fc (mouse, UniProt Q9EP73). The assay is described as follows: BLI, bivalent.
Assay [5] addresses T4, mouse PD-L1-Fc. The assay is described as follows: BLI, bivalent. This is another data set of the same source.
Assay [6] has as its target human PD-L1-Fc (human). As to the kind of experiment: BLI.

T4 sequence (Q9EP73 19-239): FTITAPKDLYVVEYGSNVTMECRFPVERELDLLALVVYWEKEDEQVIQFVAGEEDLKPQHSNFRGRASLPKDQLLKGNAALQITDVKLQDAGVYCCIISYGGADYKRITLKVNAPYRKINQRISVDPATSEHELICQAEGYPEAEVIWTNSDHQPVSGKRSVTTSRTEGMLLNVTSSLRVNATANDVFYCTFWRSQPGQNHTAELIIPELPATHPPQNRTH
human PD-L1-Fc (human), sequence (chain, as listed by the source): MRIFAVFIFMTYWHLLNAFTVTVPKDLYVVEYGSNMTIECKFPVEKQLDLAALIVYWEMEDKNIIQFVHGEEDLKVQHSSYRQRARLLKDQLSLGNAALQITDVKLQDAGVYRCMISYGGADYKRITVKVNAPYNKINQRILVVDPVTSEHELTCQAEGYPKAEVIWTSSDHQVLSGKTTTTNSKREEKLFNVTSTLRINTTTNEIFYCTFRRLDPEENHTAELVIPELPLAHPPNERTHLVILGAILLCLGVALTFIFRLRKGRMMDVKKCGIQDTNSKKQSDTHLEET

B1: ADI-20803 (antibody, V domains shown)
VH: QVQLVQSGAEVKKPGSSVKVSCKASGGTFRLYAISWVRQAPGQGLEWMGSIIPGFGSANYAQKFQGRVTITADESTSTAYMELSSLRSEDTAVYYCARDGGGGTSAYSFDPWGQGTLVTVSS
VL: EIVLTQSPATLSLSPGERATLSCRASQSVSSYLAWYQQKPGQAPRLLIYDASNRATGIPARFSGSGSGTDFTLTISSLEPEDFAVYYCQQSINFPYTFGGGTKVEIK
B1 registered a Kd with human PD-L1-Fc [1] of 0.188 nM. Further, the binding result with human PD-L2-Fc [2], with human PD-L2-HIS, in the assay with mouse PD-L2-Fc and with human PD1-Fc was “no binding” throughout.

B2: ADI-20803 Fab (antibody, V domains shown)
VH: B1 VH
VL: B1 VL
As for B2, the binding result with human PD-L2-Fc [3] is “no binding”.

B3: ADI-16403 (antibody, V domains shown)
VH: EVQLVESGGGLVQPGGSLRLSCAASGFTFSSYWMSWVRQAPGKGLEWVANIKSDGSEKYYVDSVKGRFTISRDNAKNSLYLQMNSLRAEDTAVYYCARVTYWADYMDVWGKGTTVTVSS
VL: DIQMTQSPSTLSASVGDRVTITCRASQSISSWLAWYQQKPGKAPKLLIYKASSLESGVPSRFSGSGSGTEFTLTISSLQPDDFATYYCQQSGSLPPTFGGGTKVEIK
With B3, the binding result in the assay with human PD-L2-Fc [2], with mouse PD-L1-Fc [4], with mouse PD-L2-Fc and with human PD1-Fc was “no binding” throughout.

B4: ADI-20227 (antibody, V domains shown)
VH: QVQLQESGPGLVKPSQTLSLTCTVSGGSIVSGGLYWSWIRQHPGKGLEWIGYIYYAGVTYYNPSLKSRVTISVDTSKNQFSLKLSSVTAADTAVYYCARGPRMGLAGMDVWGQGTTVTVSS
VL: DIQMTQSPSSVSASVGDRVTITCRASQGISSWLAWYQQKPGKAPKLLIYAASSLQSGVPSRFSGSGSGTDFTLTISSLQPEDFATYYCQQANSFPITFGGGTKVEIK
B4: the Kd was 0.101 nM with mouse PD-L1-Fc [5] and 0.179 nM with human PD-L1-Fc [6]. In addition, the binding result with human PD-L2-Fc [2], with human PD-L2-HIS, with mouse PD-L2-Fc and in the assay with human PD1-Fc was “no binding” each time.

B5: ADI-20227 Fab (antibody, V domains shown)
VH: B4 VH
VL: B4 VL
As to B5, the binding result with human PD-L2-Fc [3] is listed as “no binding”.
